Among the data in article PMC6250738 are stoichiometry N values, retold here.

Common to all, as to assay: SEC; Superdex 200 10/30 GL, PBS, native conditions; MW from elution volume against protein standards
In general terms: Size exclusion chromatography separates by hydrodynamic size, large species first.

Assay [1] concerns the target NanoLuc luciferase-TriggerTrimer-galectin-3 trimeric nanoassembly (deep sea shrimp | not stated | human).
Assay [2] concerns the target chondroitinase ABC I-TriggerTrimer-galectin-3 trimeric nanoassembly.
Assay [3] concerns the target superfolder green fluorescent protein-TriggerTrimer-galectin-3 trimeric nanoassembly.

Turning to “NanoLuc luciferase-TriggerTrimer-galectin-3 trimeric nanoassembly”, the stoichiometry N (usually the number of molecules, sites or subunits per partner or assembly) in assay [1] worked out at 3.

Substance “chondroitinase ABC I-TriggerTrimer-galectin-3 trimeric nanoassembly” yielded a stoichiometry N in assay [2] of 3.

Consider “superfolder green fluorescent protein-TriggerTrimer-galectin-3 trimeric nanoassembly”, for which, in assay [3], the stoichiometry N is 3.
